According to US20230105457A1, “Immunogenic Compounds For Treatment Of Adrenal Cancer” (ENTEROME S.A., priority 2019, published 2023):
Ends that are not written are not given here.

Legend:
[1] = target: HLA-A*0201 molecule expressed on human tumor cell line T2 (human); assay: T2 cell HLA-A2 stabilisation, FACS; peptide at 0.1 µM
[2] = target: HLA-A*0201 molecule expressed on human tumor cell line T2 (human); assay: T2 cell HLA-A2 stabilisation, FACS; 20% of signal of HIV pol 589-597 at 100 µM
[3] = target: HLA-A*0201 molecule expressed on human tumor cell line T2 (human); assay: T2 cell HLA-A2 stabilisation, FACS; peptide at 1 µM
[4] = target: HLA-A*0201 molecule expressed on human tumor cell line T2 (human); assay: T2 cell HLA-A2 stabilisation, FACS; peptide at 10 µM
[5] = system: T2 cell lines loaded with bacterial peptide; assay: Cytotoxic assay of expanded peptide-specific CD8+ T cells (Example 14); assay type: cell-based, human; conditions: T cell clones expanded in vitro; flow cytometry readout
Source text: CD8+ T cells expanded per above were used to perform cytotoxic assays in presence of different ratios of target and effector cells to assess their cytotoxic capacity, using flow cytometry readout. Target cells were T2 cell lines loaded with bacterial peptide. Negative control was T2 cells unloaded and T2 cells loaded with irrelevant peptide.

[6] = target: T1, HLA-A*0201 molecule expressed on human tumor cell line T2 (human); assay: T2 cell HLA-A2 stabilisation, FACS
T1 construct: surface HLA-A2 read with anti-HLA-A2 antibody BB7.2-PE by FACS; also called HLA-A2

Q: With reference peptide HIV pol 589-597 as the molecule, how does the mean relative fluorescence intensity (relative (HIV peptide = 100)) [1] read?
A: 2.4

Q: What about the Concentration of peptide that induces 20% of HLA-A2 expression [2] of the same molecule?
A: 0.85 µM

Q: What about the mean relative fluorescence intensity (relative (HIV peptide = 100)) [3] of the same molecule?
A: 22.1

Q: And the mean relative fluorescence intensity (relative (HIV peptide = 100)) [4]?
A: 84.7

Q: For FLPFGFILPV [IL13RA2-L], which “Cytotoxic capacity of peptide-specific human T cell clones (in words)” value [5] is on record?
A: have the capacity to kill T2 cells loaded with the bacteria peptide

B1: IL13RA2-B2 (SEQ ID NO: 192, Example 3) (peptide)
peptide: YLYTFLIST
Q: Does B1 bind [6]?
A: binds
